In publication PMC6126647:

Target: MmCPDII (class II CPD photolyase) (UniProt Q8PYK9 1-464)
Experiment: X-ray crystallography (2.7 A); oxidized FAD; dark, unrepaired CPD; Co-crystallization: protein in 10 mM Tris-HCl pH 8.0, 100 mM NaCl with 1.25x dsDNA (in 100 mM Tris-HCl pH 8.0, 100 mM NaCl), 30 min in dark; mixed 1:1 with 0.1

B1: 14-mer duplex with natural phosphodiester-linked cis-syn CPD (PDM DNA) (dsDNA)
DNA 1: ATCGGCTTCGCGCA
DNA 2: TGCGCGAAGCCGAT
modifications: cis-syn cyclobutane thymine dimer T7<>T8 in strand 1, natural intra-lesion phosphodiester
- binding result: binds
